Assay results published in PMC8065591 (2021).
Bridges are numbered along the chain shown (N, C = ends). [ ]: non-standard residue; d: D form. Aph(Hor) = 4-amino-phenylalanine(L-hydroorotic acid); dPhe(4-NHCONH2) = NC(=O)Nc1ccc(C[C@@H](N)C(=O)O)cc1; Cpa = not defined here; Ahx = NCCCCCC(=O)O

B1: [99mTc]Tc-HYNIC-Ahx-JR11 (peptide)
chain: {(99mTc)Tc‑HYNIC/EDDA-Ahx-Cpa}-[dC][Aph(Hor)][dPhe(4-NHCONH2)]KTC[dY]-NH2
modifications: disulfide 1-6 (inferred); reading uncertain; also: 99mTc complex, EDDA coligand, printed as Cpa-c(dCys-Aph(Hor)-dAph(Cbm)-Lys-Thr-Cys)-dTyr-NH2
B2: [99mTc]Tc-N4-JR11 (peptide)
chain: {(99mTc)Tc‑N4-Cpa}-[dC][Aph(Hor)][dPhe(4-NHCONH2)]KTC[dY]-NH2
modifications: disulfide 1-6 (inferred); reading uncertain; also: 99mTc complex, printed as Cpa-c(dCys-Aph(Hor)-dAph(Cbm)-Lys-Thr-Cys)-dTyr-NH2

Target: somatostatin receptor type 2 (SST2) (Homo sapiens, UniProt P30874)
Test: saturation binding of radioligand on HEK-SST2 cell membranes

Chain of somatostatin receptor type 2 (SST2) (P30874 whole entry): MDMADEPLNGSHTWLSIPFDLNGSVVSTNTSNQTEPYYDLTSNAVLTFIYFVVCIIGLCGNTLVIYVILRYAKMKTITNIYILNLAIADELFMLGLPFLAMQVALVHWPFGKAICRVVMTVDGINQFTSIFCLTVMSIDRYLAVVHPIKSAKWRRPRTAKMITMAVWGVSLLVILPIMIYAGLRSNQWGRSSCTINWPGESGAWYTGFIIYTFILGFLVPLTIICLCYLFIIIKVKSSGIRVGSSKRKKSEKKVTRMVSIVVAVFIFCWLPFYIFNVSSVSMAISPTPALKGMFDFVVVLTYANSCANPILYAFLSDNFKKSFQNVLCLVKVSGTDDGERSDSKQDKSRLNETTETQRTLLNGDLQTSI

Going from B1 to {(99mTc)Tc‑HYNIC/EDDA-Ahx-Cpa}-[dC]Y[dW]KTC[dY]-NH2 (disulfide 1-6 (inferred); reading uncertain; also: 99mTc complex, EDDA coligand) [[99mTc]Tc-HYNIC-Ahx-SS01], the Kd rises from 0.85 nM to 1.6 nM (1.9-fold). The first binds more tightly here.

Compared with B2, {(99mTc)Tc‑N4-Cpa}-[dC]Y[dW]KTC[dY]-NH2 (disulfide 1-6 (inferred); reading uncertain; also: 99mTc complex) [[99mTc]Tc-N4-SS01] is 1.5-fold higher in Kd: 0.6 nM for the first, 0.92 nM for the second. The first binds more tightly here.
